# In the DeepSol protein solubility set:
# Assay: soluble on expression in E. coli; label from the status in PepcDB or PDB records
row,Sequence,soluble on expression in E. coli
1,MTTTDVSWPKSLWHAVTGPGPGLPALHGAEEADVVVVGGGFSGLSTALHLREAGVDVAVVEAAEPGWGASGRNNGQVIPTLSRPDPEDIVAKHGAAGERLVGLIRDSASILFDVAKRHGVDAEQEQNGWVQPVHSPGRIKIAERRFRQWSKFGAPVELLSRDQVRDMLGSEAWFGGFWNRTGGHVNPLALARGLARAVLAQGGRIFARSPAVSIERRGDRWIVKTAQGEISGRALVVASNAYTGEFSKTLAPAIASEVMPVRSWQMATQPLSDNVRKTIIPGRQAMSDTHGELIFGRFDARNRFVTGGAIIRPFNQIATLKARVGKRLQRLWPQIGEVRFDYVWNGFIGMTTDYLPHIHRLGPNAYGWTGCNGRGVALSVALGRELSKAVRGVTDGELALPFTEPTPIPANELLRPFAPLMMVLYRHRDAKEIGLEHHHHHH,not soluble
2,ASDRQLGPPRMCEPSPREQLMESIRKGKELKQITPPEA,soluble
3,MGHHHHHHSHMIKRSSECNPLLQEPIASAQFGATAGTECRKSVPCGWERVVKQRLFGKTAGRFDVYFISPQGLKFRSKSSLANYLHKNGETSLKPEDFDFTVLSKRGIKSRYKDCSMAALTSHLQNQSNNSNWNLRTRSKCKKDVFMP,soluble
4,SACSRDTPEAPQSTSATSSAAPSTTSASTTAPSSASASSITQTSKVSSQAEAPTSVPPMLDSKHKNVQRAFEQFGALAPESLFAQFDTCDANGVQNSMACSGHDVGQFQFFKSDAKAASTTQLLTELRSSRVIEDTGRR,not soluble
5,GSMAGEDVGAPPDHLWVHQEGIYRDEYQRTWVAVVEEETSFLRARVQQIQVPLGDAARPSHLLTSQLPLMWQLYPEERYMDNNSRLWQIQHHLMVRGVQELLLKLLPDDRSPGIHRD,soluble
6,MAPPKRRSTRPTTPAAPTDPPIEEKKPDLLIAYDSDEKFVFSFSEEGLTAKECAEKMNGFSTKEQFLTEVHVDEMLRFLTKVIIGRKGEPLKCLCCDRLYVSSSGFLIHIKKCSTKNEQDRLTDAQNKYRNEPSKWLNVRKKDQIATLKTIVGTNYTCFMIGCSLNFGSLKDLIEHLATCIGADYYSYKNRPDDFRKLSKKAKQAYTLDAVTKNKGIVKCLVCDKEYTNHMSIIYHIDRCQVDKSLQPWKCWRCGFDATAADAQEHLIDCGRTAEMKMFDRLPESSSFGFPIPGSSVPSTSEPTTSAAAAPTKRKRVTGGAPRATPRKDGTTLYRFRKSTISRSSNGIVTKKDKKLYEDQCSKIFENWKQKSAEIAFCDTLSNIANSKWKLSILDSNDQFYRIFTRQSVTLVSGKTLGLQQTVPPGIRLDALKSREMLDEDDAPKATVGYCGAPINSINVAPGKTRDGSDVICVTTFANDTDLESDSSCVQFWKHKLGKKKKSHLELWFLIHLPLRGTILHATWLQKQHNDEMMTSLIGYVAFSTTIGQILIYKIDESRVPEAPDRGDNVHVIVADPDLTLRLPKSTDTPDDTFLNADVKMEGDDIVVLPTRIDESTVPLLKIAWSYHNGGATLAALTALGAIAIWNLDGGDLDMPRVNIEESWQSPPSDIAFWNIDHLVVGFREKIVKVISIETWDVMLEDNTAKNAGSRVHTDNRIVRSFFMFQSDHTAFPYPNATNLTYVHCDIDTMTMILVPTGNTHQLLTWDVAMCPAVGTLLSSGIDGRLVASATGRFLGNMRHSYFANRNVMALKRRRILKESQTMEEYLKEVKMEGSAEGSTSTSTTKISDDKINEPLEESITEHTEVCQKMWLDVQFDEIFEPTRPEFSCRDQRIESLNCVDGTTSRDWPVSFTGGEAGLLFAVSVKLHIEEMDL,not soluble
7,MAHHHHHHMFKQRDNEYHPPMTVDPSGGGVTTSAGVFGEVGMGNVASPFLDGPAAVAGSRKRGRDIRSLDRFRAVVYGEDGFRRLHAMVARNPVLMYPPDGIEAARARVMVRKAELQSQLRSALGHREHNRNPADNGDDDVFALFEARRRAESDVHPATEGEEVPRQPASEHAPLPSSLASIRQDEELATYHHKQLDSYLRLLYEFNHATFVKLPMEDTLRLLSRCGKEAVAHIVEYETQVRLRRQSRIRDLNELRQEQAALEERRLAIDDAEQARLVQSAELRQAELDLELDNGVVKAEPPDDGSADEDVKVILETSSSSVHFASLPAGDSPEENMDGIVMAVEDEGIQYT,not soluble
8,MAIETEDIKYEESFIKNTRGFKLFTCRWLPTNREPRALVFLCHGYGMECSITMNSTARRLVKAGFAVYGMDYEGHGKSDGLSAYISNFDRLVDDVSTHYTAICEREENKWKMRFMLGESMGGAVVLLLGRKNPDFWDGAILVAPMCKIAEEMKPSPFVISILTKLISIIPKWKIIPSQDIIEISYKEPEIRKQVRENPLCSKGRPRLKTAYELLRISNDLEKRLQEVSLPFLVLHGDDDKVTDKAVSQELYKVALSADKTLKLYPGMWHGLLTGETPENIEIVFADVISWLEKRSDYGNDRFESELKQRNDRLNFKK,soluble
9,MIINKVKSLIKHGFNLAIDISADILLIFTETGRTYEYYKDQEAIYKRARKNRSLKDFKSLKVVVTTPNEETFLKLKNESKIIPLLMTYRNDDRSSMIKQAVTNLFANNIVKKGDIVVSILGIPKVTGGTDTISIFEVNEYPQILKYYDYISSIEKTKGKVINEVLNLCMELAVEGREGTPVGSIFVIGDSDRVLKMSSQLILNPFEGHESFIFDKQVKGTVKELSTIDGAFVIGEKGEVLCAGRYISCSGGNIELPLGLGARHHAAATISKYTGAIAITVSESGGVIRIFKNGEILSEIKPKKLSNTSEYSY,not soluble
10,MSLRTMLTQKFVVDSMLGKIARWLRIMGYDTLYSNDFEDWKILKIAETQKRIIITRDRGIYYRSLKRGLNCILLSPDSNIIQDLAFIALRSKIDLSVNINATRCPQCNSVLSKLSESMWLCPKCKKEYWKGRHWRTIEEIIIKANSELVKLETKNDSRGTGTDTGVKRRDRTVTNRNSEGHHHHHH,soluble
11,MVVFVQSRKRWTYSSAHLLVEEYPSKKVDFKEFASKLTEDEINLRVMPIFWVAGHDNAVLSSTISDSTVALLSRWDVIAAMEAVSRYKVTSMYLTFDMYWQILEHPERELEIFEDLYTFKLCEKGLTVQLREKWKEVAGAILREARTS,not soluble
12,MGSDKIHHHHHHMPNQVSKVNDLKHFFLHLIESGKLSHAYLFLGEDPREIHNLIAAISSRILREKTGDDVFENANLIEVKIPEGKKTLSVDQMRTVRDIFAEKSEHPQIAVIDDADKMTDSAANSILKFIEEPYDRQYIFLQARNRNRVLPTILSRVQLINIPKQKKSEISEQLVDKGIQEDEAIFISRISKSISQADDLLLDGFAINLKRSITEWLDEIFNRQEKSFAFVQSDLLNFVDTNEHQNIFNLALSSELSMRLEKAPNSVLADILDRWLVIYQRSRFTVSWQTMLESFTLEALRMVNGTEKFSNK,not soluble
13,MGTETVSFKWEGKKVAQVNGVTAEKVWSVFSDFCNVQEWFPSVDTCYRVQGTDGVPGLIRYCSTTKTKEEGSRWAKEKLVKIDPIGRCLSYEILENNVGFRSYVATVQVTPVDGEDQVSRIEWSFVADPVDGWKKEDLESYVDFCLQHMANKMELNL,soluble
14,MKVDGRRPEDEVIRETNAHGVSVVHIKKDPTTQKVEIVKNSIFNRRITASTVMEFAGAAAGSSLLATRFSPAGRQTRGTHNNCGNGYTPWGTYLTTEENFIGYFQRSGSDEYARTDAEKIALKRYGLGVKKDEPYLYEKDEKGAPKKDKDGKIIYLKDKNGELIPNVDEQGRQIYLGTSSRYGWETAIGQVESQDLYDRWNADVKAAQATQDYRNGPNTFGWMVEIDPFDGRQNPVKRTSLGRFAHEDSACRAVVGQPLAFYMGDDSRGEYIYKFVSTAVWDTKDINGGYTAGDKYMNAGKLYVAKFNNDGSGQWIELAYGKNGLNESNTTYPFKSQADVVTFARLAADSVGATKMDRPEWCTVNPVNGEIYVTLTNNSNRGKDYATDAANPRNYTDLYAGTKEQKGNVNGHIIRFKETDDKTTAETFKWDIYLFGAEASMASNINLSGLTDNNDFSSPDGMWFDPRGVLWIETDDGAYTDVTNCMMLAALPGQIGDGGTATTSNGQQTITGAKVTDATLRRFLVGPKQCEITGIAMTPDYKAIFINVQHPGEDSPSYAKPESNWPATQKDPSNKTARPRSATVVITRKDGGVIAGLEHHHHHH,soluble
15,GMMTHYSDNTLKVAHQGFEFFTQGLATGEWQKFLDMLTEDFTFWFPMGEFHGLNVGKERAKEFFTYVSESFHTGIQISSLDRVTSNETTVVFEFRDEGLFLGKPYKNRVAVSFDVRGDKICSYREYFGSDGKSN,soluble
